Reference: patent US20250179187A1, “ANTI PD-L2 ANTIBODY” (REJUVERON SENESCENCE THERAPEUTICS AG, priority 2022, published 2025)

Experiments:
[1] = target: T1, recombinant hPD-1 binding to CHOK-1 cell expressing hPD-L2 (Homo sapiens, UniProt Q9BQ51); experiment: Blocking of recombinant hPD-1 binding to cellular hPD-L2 by flow cytometry; type: cell-based; conditions: compared to a panel of commercially available anti-PD-L2 antibodies
T1 construct: GFP; host or cells: CHO-K1
T1 sequence (Q9BQ51 20-273): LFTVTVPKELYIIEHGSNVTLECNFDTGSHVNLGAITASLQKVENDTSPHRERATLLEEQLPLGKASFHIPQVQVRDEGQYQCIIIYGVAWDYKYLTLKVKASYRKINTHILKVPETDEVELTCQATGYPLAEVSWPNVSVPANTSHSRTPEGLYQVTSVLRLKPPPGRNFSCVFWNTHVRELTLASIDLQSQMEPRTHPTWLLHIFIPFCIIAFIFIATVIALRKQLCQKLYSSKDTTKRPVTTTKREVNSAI
Experimental: CHO-K1 cells over-expressing either hPDL2-GFP were detached, washed in phosphate buffered saline (PBS) and adjusted to a cell concentration of around 1 million cells in CB. Around 80,000 cells were then distributed into a round-bottom 96 well plate and the plate was centrifuged for 3 minutes at 400 g at 4° C. and supernatant discarded. A constant concentration of ligand recombinant hPD-1 ligand (Sino Biological 10377-H08H/lot LC13JA2207) of 15 micrograms/mL was incubated with respective concentration of antibody, added to the cells and incubated for 30 min at 6-8° C. Cells were washed 3 times in PBS and then incubated with a rabbit polyclonal anti-His (Abcam Ab1187/lot GR3369369-1) in CB and subsequently washed three times in PBS. Cells were then incubated with a labeled anti-rabbit secondary (AlexaFluor 647 Goat anti-Rabbit IgG (H+L) (Invitrogen A21244/lot 1910774) for 15 minutes at 4° C., washed two times in PBS, resuspended in CB and analyzed in the Sony ID7000 Spectral Cell analyzer (Sony).

hPD-L2/hPD-1 interaction = target: T2, hPD-L2/hPD-1 interaction (Homo sapiens, UniProt Q9BQ51); experiment: Reporter assay, blocking of cellular hPD-L2/hPD-1 interaction (Jurkat hPD-1 / CHO-K1 hPD-L2 co-culture); type: cell-based; conditions: reporter in hPD-1 Jurkat cells co-cultured with hPD-L2 CHO-K1 cells; compared to MIH-18, 24F.10C12 and D7U86
T2 construct: host or cells: CHO-K1 (hPD-L2) co-cultured with Jurkat PD-1 effector cells
T2 sequence (Q9BQ51 20-273): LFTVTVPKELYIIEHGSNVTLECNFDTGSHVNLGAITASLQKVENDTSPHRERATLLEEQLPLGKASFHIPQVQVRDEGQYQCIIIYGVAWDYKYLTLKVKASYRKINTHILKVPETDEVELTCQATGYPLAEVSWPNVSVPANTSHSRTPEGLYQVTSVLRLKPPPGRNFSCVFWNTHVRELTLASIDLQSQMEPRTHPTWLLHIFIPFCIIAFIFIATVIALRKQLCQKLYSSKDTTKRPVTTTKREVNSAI
Experimental: Cellular blocking activity of antibodies according to the present invention was assessed by with the Promega (Southampton, Hampshire, UK) PD-1/PD-L2 blockade bioassay (Promega, Cat No. CS187131-1), which is a bioluminescent cell-based assay that is used to measure the potency and stability of antibodies and other biologics designed to block the hPD-1/PD-L2 interaction. In brief, CHO-K1 cells overexpressing hPD-L2 were thawed and plated in a 96 well plate. The following day, appropriate concentrations of antibodies were added to the wells. Jurkat PD-1 effector cells, expressing a luminescent NFAT reporter for cell activation, were subsequently thawed and added to the wells immediately. The co-culture was incubated for 6 hours and read using the SpectraMax i3× reader (Molecular Devices, Wokingham, UK). GraphPad Prism 9.0 (GraphPad Software, La Jolla, Ca) was used for the data analysis and data was plotted using a four-parameter non-linear regression model.

recombinant mPD-L2 = target: T3, recombinant mPD-L2 (Mus musculus, UniProt Q9WUL5); experiment: ELISA for mPDL2; type: binding
T3 construct: purchased Sino Biological 50804-M08H-B
T3 sequence (Q9WUL5 20-247): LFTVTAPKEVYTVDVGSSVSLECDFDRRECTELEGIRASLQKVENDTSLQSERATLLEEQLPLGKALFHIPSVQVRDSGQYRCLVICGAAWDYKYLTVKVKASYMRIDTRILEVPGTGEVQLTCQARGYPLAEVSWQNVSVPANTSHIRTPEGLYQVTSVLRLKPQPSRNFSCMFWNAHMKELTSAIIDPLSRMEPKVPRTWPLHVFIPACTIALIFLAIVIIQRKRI
Experimental: ELISA plates were coated with recombinant mPDL2 (Sino Biological, cat 50804-M08H-B, lot LC10SE0706) at a concentration of 2 micrograms/milliliter at 4° C. for 15 h. Coating was then washed two times with PBS and blocked with 0.5% bovine serum albumin (BSA)/PBS at 37° C. for one hour. Blocking was removed and appropriate antibody concentrations diluted in 0.5% BSA/PBS for 1 hour at 37° C. Plates were then washed five time in PBS and a goat anti-mouse-HRP (Jackon Immuno Research cat #115-035-071) diluted in 0.5% BSA/PBS was added and incubated for 30 minutes at 37° C. Plates were washed again five times with PBS and TMB substrate (Medicago cat #10-9405) was added for 30 minutes at 37° C. in the dark. Reaction was stopped with 1N HCl and read and optical densities read on a standard spectrophotometer plate reader at […].

[2] = target: T4, cellular hPD-L2 expressed on CHOK-1 cells (Homo sapiens, UniProt Q9BQ51); experiment: Binding of antibodies to cellular hPD-L2 on CHO-K1 cells by flow cytometry; conditions: compared to a panel of commercially available anti-PD-L2 antibodies
T4 construct: GFP; expressed in transfected cells; host or cells: CHO-K1
T4 sequence (Q9BQ51 20-273): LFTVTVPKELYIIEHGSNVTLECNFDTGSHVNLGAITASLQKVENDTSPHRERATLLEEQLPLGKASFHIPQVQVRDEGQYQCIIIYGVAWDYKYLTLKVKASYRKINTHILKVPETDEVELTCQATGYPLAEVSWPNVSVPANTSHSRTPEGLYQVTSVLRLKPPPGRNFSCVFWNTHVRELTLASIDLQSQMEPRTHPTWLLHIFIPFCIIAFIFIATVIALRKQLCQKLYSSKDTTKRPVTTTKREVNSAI
Experimental: CHO-K1 cells over-expressing either hPDL2-GFP or mPD-L2 GFP were detached, washed in phosphate buffered saline (PBS) and adjusted to a cell concentration of around 1 million cells in cytometry buffer (CB, PBS containing 1% […]). Around 80,000 cells were then distributed into a round-bottom 96 well plate and the plate was centrifuged for 3 minutes at 400 g at 4° C. and supernatant discarded. Appropriate antibody concentrations in 50 microliter volumes were added to the wells and incubated for 30 minutes at 6-8° C. The plate was washed 3 times with PBS and relevant secondary antibodies (either AlexaFluor 647 Goat anti-Mouse IgG (H+L) (Invitrogen A21235/lot 1915807) or AlexaFluor 647 Goat anti-Rat IgG (H+L) (Invitrogen A21247/lot 1921562) were added for 30 minutes at 4° C. Cells were again washed with PBS two times, resuspended in CB and analyzed in either the Sony ID7000 Spectral Cell analyzer (Sony) or the GALLIOS Flow Cytometer (Beckman-Coulter) was used. EC50 was calculated using the Sigmoidal 4PL equation of the GraphPad Prism-9 software.

PyMT mammary tumor = experiment: Implantable mouse PyMT mammary tumor model; type: in vivo; conditions: in combination with doxorubicin, up to day 49, compared to TY-25 in combination with doxorubicin
Experimental: 1 million PyMT cells were injected in PBS into the right mammary fat pad number 4, with an N=10 animals per treatment group. When tumors reached an average of 100 millimeter cubed on day 17 post-injection, treatment regimens were initiated. All mice were sorted into study groups based on caliper estimation of tumor burden. The mice were distributed to ensure that the mean tumor burden for all groups was within 10% of the overall mean tumor burden for the study population. The first dose of doxorubicin was administered intraperitoneally at 4 mg/kg, as well as the antibodies, all at doses of 10 mg/kg intraperitoneally, on day 17 post-implantation. Doxorubicin (MWI Animal Health, BJ0080A/NA) was administered once more on day 24 and antibodies on days 20, 24, 27, 31, 34, 38, 41. The following commercial antibodies were used in the study: anti-mouse PD-L2 (clone TY-25, Bio X Cell lot/cat 0411901. Vehicle-treated animals received only vehicle solvent for doxorubicin as a no-treatment control. Tumor volume was measured at least 2-3 times per week throughout the study with a standard caliper.

B1: VH0/VK0-mIgG1: parental murine anti-PD-L2 antibody on mIgG1 backbone; SEQ ID NO: 21/SEQ ID NO: 22 (antibody, V domains shown)
VH: QVQLQQSGAELVRPGTSVKVSCKASGYAFSNYFIEWVKQRPGQGLEWIGLNIPGSGGSNYAEKFKGKATLTADKSSSTAYMQLSSLTSEDSAVYFCARRRLPPDWYFDVWGTGTTVTVSS
VL: DVVMTQTPLSLPVSLGDQASISCRSSQSLVHSDGNTYLHWYLQKPGQSPKLLIYKVSNRFSGVPDRFSGSGSGTDFTLKISRVEAEDLGVYFCSQSTHVPWTFGGGTKLEIK
blocking activity against recombinant hPD-1 binding to CHOK-1 cell expressing hPD-L2 [1]: superior blocking activity | blocking activity against cellular hPD-L2/hPD-1 interaction (hPD-L2/hPD-1 interaction): superior blocking activities | cross-reactivity to recombinant mPD-L2 (recombinant mPD-L2): shows cross-reactivity | binding activity against cellular hPD-L2 [2]: superior binding activity | progression of tumors (PyMT mammary tumor): smaller progression of tumors
